Target: the molecule itself
Assay: negative-stain electron microscopy; 7 uM lysenin incubated with MLVs of SM/DOPC/cholesterol (1:2:1) for 30 min at 20 °C, with or without 10 mM DTT; fixed with 1% glutaraldehyde, stained with 2% uranyl acetate

B1: lysenin^WT (natural protein)
chain: MSAKAAEGYEQIEVDVVAVWKEGYVYENRGSTSVDQKITITKGMKNVNSETRTVTATHSIGSTISTGDAFEIGSVEVSYSHSHEESQVSMTETEVYESKVIEHTITIPPTSKFTRWQLNADVGGADIEYMYLIDEVTPIGGTQSIPQVITSRAKIIVGRQIILGKTEIRIKHAERKEYMTVVSRKSWPAATLGHSKLFKFVLYEDWGGFRIKTLNTMYSGYEYAYSSDQGGIYFDQGTDNPKQRWAINKSLPLRHGDVVTFMNKYFTRSGLCYDDGPATNVYCLDKREDKWILEVVG
notes: also called recombinant lysenin; wild-type lysenin; source: E. coli BL21(DE3), purified (Ni Sepharose 6 Fast Flow)
B1: binds.

Reference: PMC6722932 (Toxins, 2019)
